Assay results: patent US20220088075A1 (University of Pennsylvania, published 2022)

Columns and labels:
[1] = target: T1, wild type hEGFR (human EGFR wild type) on transiently transfected HEK293F cells (human, UniProt P00533 25-1210); assay: FACS, purified His-tagged scFv on HEK293F cells transiently transfected with wild type hEGFR, anti-poly His PE
T1 construct: whole, on cells; also called wild type EGFR
Protocol: (§1) HEK293F suspension cells were transiently transfected with either wild type hEGFR or hEGFRvIII and were harvested 2 days after transfection. Approximately 5e5 cells/per well were transferred to a BD Falcon 96 well plate. The cells were spun down at 900 rpm (Sorval Legend XT centrifuge) for 3 minutes. The supernatant was removed. Anti-EGFRvIII scFv protein samples were diluted in DPBS with 5% FBS. The samples were added into the wells, mixed and incubated for 1 hour. The cells were washed twice in the DPBS with 5% FBS. The cells were incubated with anti-poly His PE (R&D) for 1 hour, washed twice before FACS analysis (LSRII from BD Biosciences).

[2] = target: T2, hEGFRvIII (human epidermal growth factor receptor variant III) on transiently transfected HEK293F cells (human, UniProt P00533 25-1210); assay: FACS, purified His-tagged scFv on HEK293F cells transiently transfected with hEGFRvIII, anti-poly His PE
T2 construct: whole, on cells; also called human EGFRvIII
Protocol: as §1

[3] = target: T3, EGFRvIII-Fc fusion protein (UniProt P00533 25-645, limits assumed); assay: flow cytometry, Jurkat E6 cells electroporated with CAR vector, titrated EGFRvIII-Fc, PE anti-human IgG Fc
T3 construct: not shown: detected with PE anti-human IgG Fc
Protocol: Jurkat E6 cells were electroporated with either CAR9 vector or CAR10 vector using Amaxa Cell Line Nucleofector Kit V (Lonza, Colgne AG, Germany) and program X-001. One day after the transfection, 0.5×10⁶ cells were placed into each well of a V-shape 96 well plate (Greiner Bio-One, Germany) in 0.2 ml FACS buffer (DPBS buffer containing 5% FBS) and incubated for 10 minutes at room temperature. Cells were then spun down and resuspended in 0.2 ml of the FACS buffer with different concentrations of EGFRvIII-Fc or EGFRwt-Fc and incubated at 4° C. for 30 minutes. Cells were then washed with FACS buffer three times, and incubated with 0.2 ml of the FACS buffer with 2 μl of PE anti-human IgG Fc (Jackson ImmunoResearch Laboratories, West Grove, Pa.) for 30 minutes at 4° C. in the dark. After washing with 0.2 ml of FACS buffer three times, cells were analyzed on a LSRII (BD Biosciences, San Jose, Calif.) machine using the FACSDiva software (BD Biosciences, San Jose, Calif.). Immunofluorescence staining was analyzed as the relative log fluorescence of live cells, and the percentage of the PE positive cells were measured.

B1: CAR4 soluble scFv (humanized anti-EGFRvIII scFv, VK2-VH5) (scFv)
scFv: DVVMTQSPLSLPVTLGQPASISCKSSQSLLDSDGKTYLNWLQQRPGQSPRRLISLVSKLDSGVPDRFSGSGSGTDFTLKISRVEAEDVGVYYCWQGTHFPGTFGGGTKVEIKGGGGSGGGGSGGGGSGGGGSEIQLVQSGAEVKKPGESLRISCKGSGFNIEDYYIHWVRQMPGKGLEWMGRIDPENDETKYGPIFQGHVTISADTSINTVYLQWSSLKASDTAMYYCAFRGGVYWGQGTTVTVSSGSHHHHHHHH
notes: also called CAR4 scFv
**Q.** Does B1 bind [1]?
**A.** no binding

**Q.** Does B1 bind [2]?
**A.** binds

B2: CAR1 soluble scFv (humanized anti-EGFRvIII scFv, VH1-VK4) (scFv)
scFv: EIQLVQSGAEVKKPGATVKISCKGSGFNIEDYYIHWVQQAPGKGLEWMGRIDPENDETKYGPIFQGRVTITADTSTNTVYMELSSLRSEDTAVYYCAFRGGVYWGQGTTVTVSSGGGGSGGGGSGGGGSGGGGSDVVMTQSPDSLAVSLGERATINCKSSQSLLDSDGKTYLNWLQQKPGQPPKRLISLVSKLDSGVPDRFSGSGSGTDFTLTISSLQAEDVAVYYCWQGTHFPGTFGGGTKVEIKGSHHHHHHHH
notes: not tied in words; also called CAR1 scFv
**Q.** Does B2 bind [1]?
**A.** no binding

**Q.** Does B2 bind [2]?
**A.** binds

B3: CAR2 soluble scFv (humanized anti-EGFRvIII scFv, VK4-VH1) (scFv)
scFv: DVVMTQSPDSLAVSLGERATINCKSSQSLLDSDGKTYLNWLQQKPGQPPKRLISLVSKLDSGVPDRFSGSGSGTDFTLTISSLQAEDVAVYYCWQGTHFPGTFGGGTKVEIKGGGGSGGGGSGGGGSGGGGSEIQLVQSGAEVKKPGATVKISCKGSGFNIEDYYIHWVQQAPGKGLEWMGRIDPENDETKYGPIFQGRVTITADTSTNTVYMELSSLRSEDTAVYYCAFRGGVYWGQGTTVTVSSGSHHHHHHHH
notes: also called CAR2 scFv
**Q.** Does B3 bind [1]?
**A.** no binding

**Q.** Does B3 bind [2]?
**A.** binds

B4: CAR8 soluble scFv (humanized anti-EGFRvIII scFv, VK2-VH1) (scFv)
scFv: DVVMTQSPLSLPVTLGQPASISCKSSQSLLDSDGKTYLNWLQQRPGQSPRRLISLVSKLDSGVPDRFSGSGSGTDFTLKISRVEAEDVGVYYCWQGTHFPGTFGGGTKVEIKGGGGSGGGGSGGGGSGGGGSEIQLVQSGAEVKKPGATVKISCKGSGFNIEDYYIHWVQQAPGKGLEWMGRIDPENDETKYGPIFQGRVTITADTSTNTVYMELSSLRSEDTAVYYCAFRGGVYWGQGTTVTVSSGSHHHHHHHH
notes: also called CAR8 scFv
**Q.** Does B4 bind [1]?
**A.** no binding

**Q.** Does B4 bind [2]?
**A.** binds

B5: CAR10 (chimeric antigen receptor with anti-EGFRvIII clone 139 scFv), expressed on Jurkat E6 cells or primary human T cells (other)
chain: DIQMTQSPSSLSASVGDRVTITCRASQGIRNNLAWYQQKPGKAPKRLIYAASNLQSGVPSRFTGSGSGTEFTLIVSSLQPEDFATYYCLQHHSYPLTSGGGTKVEIKRTGSTSGSGKPGSGEGSEVQVLESGGGLVQPGGSLRLSCAASGFTFSSYAMSWVRQAPGKGLEWVSAISGSGGSTNYADSVKGRFTISRDNSKNTLYLQMNSLRAEDTAVYYCAGSSGWSEYWGQGTLVTVSSTTTPAPRPPTPAPTIASQPLSLRPEACRPAAGGAVHTRGLDFACDIYIWAPLAGTCGVLLLSLVITLYCKRGRKKLLYIFKQPFMRPVQTTQEEDGCSCRFPEEEEGGCELRVKFSRSADAPAYKQGQNQLYNELNLGRREEYDVLDKRRGRDPEMGGKPRRKNPQEGLYNELQKDKMAEAYSEIGMKGERRRGKGHDGLYQGLSTATKDTYDALHMQALPPR
**Q.** With B5 as the binder, how does the “fold lower binding compared to CAR9” value [3] read?
**A.** ~40 fold

B6: CAR5 soluble scFv (humanized anti-EGFRvIII scFv, VH1-VK2) (scFv)
scFv: EIQLVQSGAEVKKPGATVKISCKGSGFNIEDYYIHWVQQAPGKGLEWMGRIDPENDETKYGPIFQGRVTITADTSTNTVYMELSSLRSEDTAVYYCAFRGGVYWGQGTTVTVSSGGGGSGGGGSGGGGSGGGGSDVVMTQSPLSLPVTLGQPASISCKSSQSLLDSDGKTYLNWLQQRPGQSPRRLISLVSKLDSGVPDRFSGSGSGTDFTLKISRVEAEDVGVYYCWQGTHFPGTFGGGTKVEIKGSHHHHHHHH
notes: also called CAR5 scFv
**Q.** Does B6 bind [1]?
**A.** no binding

**Q.** Does B6 bind [2]?
**A.** binds

B7: CAR3 soluble scFv (humanized anti-EGFRvIII scFv, VH5-VK2) (scFv)
scFv: EIQLVQSGAEVKKPGESLRISCKGSGFNIEDYYIHWVRQMPGKGLEWMGRIDPENDETKYGPIFQGHVTISADTSINTVYLQWSSLKASDTAMYYCAFRGGVYWGQGTTVTVSSGGGGSGGGGSGGGGSGGGGSDVVMTQSPLSLPVTLGQPASISCKSSQSLLDSDGKTYLNWLQQRPGQSPRRLISLVSKLDSGVPDRFSGSGSGTDFTLKISRVEAEDVGVYYCWQGTHFPGTFGGGTKVEIKGSHHHHHHHH
notes: also called CAR3 scFv
**Q.** Does B7 bind [1]?
**A.** no binding

**Q.** Does B7 bind [2]?
**A.** binds
